Experimental data published in IntAct's records for PubMed 24152121.

What was measured:
vps29_mouse Vps29 = vps29_mouse Vps29 (UniProt Q9QZ88)
vp26a_mouse Vps26a = vp26a_mouse Vps26a (UniProt P40336)

effect of a mutation on the interaction (vps29_mouse Vps29): with no effect
effect of a mutation on the interaction (vp26a_mouse Vps26a): with no effect
Substance: Vacuolar protein sorting-associated protein 35 (Homo sapiens) (from UniProt Q96QK1) D620N
